Reference: publication PMC6275495

Target: PDGFRs (PDGFRα and PDGFRβ subunit dimers) (mouse (endogenous in MEFs)) (UniProt P26618)
Assay: affinity purification with mass spectrometry

Chain of UniProt P26618 (P26618 25-1089, chain 1 of 2): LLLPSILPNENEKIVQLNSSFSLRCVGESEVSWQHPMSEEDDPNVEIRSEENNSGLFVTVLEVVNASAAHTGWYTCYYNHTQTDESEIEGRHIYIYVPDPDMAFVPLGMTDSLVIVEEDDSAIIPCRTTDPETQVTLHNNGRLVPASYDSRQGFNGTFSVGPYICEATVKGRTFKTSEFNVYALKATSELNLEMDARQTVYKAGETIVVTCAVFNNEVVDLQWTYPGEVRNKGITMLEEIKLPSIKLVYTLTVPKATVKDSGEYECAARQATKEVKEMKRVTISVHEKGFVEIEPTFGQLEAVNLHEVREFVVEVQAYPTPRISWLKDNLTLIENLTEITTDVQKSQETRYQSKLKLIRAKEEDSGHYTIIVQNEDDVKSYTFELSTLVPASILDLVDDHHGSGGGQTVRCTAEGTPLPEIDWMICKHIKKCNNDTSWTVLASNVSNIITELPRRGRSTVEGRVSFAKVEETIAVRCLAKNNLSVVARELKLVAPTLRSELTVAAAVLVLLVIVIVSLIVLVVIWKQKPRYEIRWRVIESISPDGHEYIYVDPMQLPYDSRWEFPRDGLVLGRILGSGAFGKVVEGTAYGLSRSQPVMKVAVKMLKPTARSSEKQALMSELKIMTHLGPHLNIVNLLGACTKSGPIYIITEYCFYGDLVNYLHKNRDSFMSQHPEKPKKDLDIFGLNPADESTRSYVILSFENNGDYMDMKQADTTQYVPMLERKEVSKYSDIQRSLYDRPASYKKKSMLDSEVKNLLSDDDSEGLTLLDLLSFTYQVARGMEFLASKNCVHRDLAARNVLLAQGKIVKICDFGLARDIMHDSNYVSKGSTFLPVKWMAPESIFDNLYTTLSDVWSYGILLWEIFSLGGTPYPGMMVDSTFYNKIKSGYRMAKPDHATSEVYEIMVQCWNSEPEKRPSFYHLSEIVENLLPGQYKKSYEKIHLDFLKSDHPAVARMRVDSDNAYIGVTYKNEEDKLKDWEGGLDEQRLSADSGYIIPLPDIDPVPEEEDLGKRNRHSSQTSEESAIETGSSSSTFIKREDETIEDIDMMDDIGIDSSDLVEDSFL
Chain of UniProt P26618 (P05622 32-1098, chain 2 of 2, further chain): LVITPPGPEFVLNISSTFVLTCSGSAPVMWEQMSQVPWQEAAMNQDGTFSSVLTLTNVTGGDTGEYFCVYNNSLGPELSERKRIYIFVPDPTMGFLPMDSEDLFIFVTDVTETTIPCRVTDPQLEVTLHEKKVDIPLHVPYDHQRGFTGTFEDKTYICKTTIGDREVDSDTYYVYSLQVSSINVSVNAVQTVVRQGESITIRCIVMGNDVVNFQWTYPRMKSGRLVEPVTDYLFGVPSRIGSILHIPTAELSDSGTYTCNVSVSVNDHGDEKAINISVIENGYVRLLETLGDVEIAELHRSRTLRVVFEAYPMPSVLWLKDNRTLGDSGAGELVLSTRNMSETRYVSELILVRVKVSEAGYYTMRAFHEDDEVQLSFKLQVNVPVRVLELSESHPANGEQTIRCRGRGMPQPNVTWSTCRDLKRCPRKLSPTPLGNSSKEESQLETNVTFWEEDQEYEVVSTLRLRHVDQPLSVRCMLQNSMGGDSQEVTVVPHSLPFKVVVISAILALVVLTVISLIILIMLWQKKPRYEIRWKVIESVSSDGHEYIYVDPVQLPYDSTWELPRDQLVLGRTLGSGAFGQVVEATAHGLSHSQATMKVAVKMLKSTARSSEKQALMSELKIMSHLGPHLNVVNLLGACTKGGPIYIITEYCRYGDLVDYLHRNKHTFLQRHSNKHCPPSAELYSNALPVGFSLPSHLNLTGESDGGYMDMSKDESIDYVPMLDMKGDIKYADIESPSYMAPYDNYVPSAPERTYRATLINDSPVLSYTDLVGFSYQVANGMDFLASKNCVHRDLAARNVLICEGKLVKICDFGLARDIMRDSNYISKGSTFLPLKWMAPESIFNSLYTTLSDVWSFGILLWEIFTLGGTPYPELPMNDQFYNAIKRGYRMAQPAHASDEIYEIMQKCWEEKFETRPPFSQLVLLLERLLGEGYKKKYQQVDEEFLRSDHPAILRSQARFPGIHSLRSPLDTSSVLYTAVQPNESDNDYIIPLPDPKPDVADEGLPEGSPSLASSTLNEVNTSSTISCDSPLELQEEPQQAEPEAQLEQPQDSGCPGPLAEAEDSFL

**Q.** Which percent of total associated with anti-PDGFR-IPs does the source give for total p85 here?
**A.** Its percent of total associated with anti-PDGFR-IPs is > 80%.
